System: aflibercept
Sequence (chain, as listed by the source): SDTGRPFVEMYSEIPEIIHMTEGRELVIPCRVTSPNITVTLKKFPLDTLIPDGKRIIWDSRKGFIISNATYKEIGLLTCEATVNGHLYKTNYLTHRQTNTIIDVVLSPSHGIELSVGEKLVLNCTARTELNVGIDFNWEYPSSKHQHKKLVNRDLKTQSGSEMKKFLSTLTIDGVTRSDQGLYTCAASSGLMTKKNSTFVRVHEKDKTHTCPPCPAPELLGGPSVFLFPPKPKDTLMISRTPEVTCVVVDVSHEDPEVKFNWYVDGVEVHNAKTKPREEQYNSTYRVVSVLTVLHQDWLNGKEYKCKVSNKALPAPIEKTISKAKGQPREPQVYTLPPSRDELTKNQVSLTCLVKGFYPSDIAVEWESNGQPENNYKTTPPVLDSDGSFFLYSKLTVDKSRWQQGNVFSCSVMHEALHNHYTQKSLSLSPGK

cathepsin D (Chinese hamster ovary host cell protein; recombinant CHO Cathepsin D with mmh tag), sequence (chain, as listed by the source): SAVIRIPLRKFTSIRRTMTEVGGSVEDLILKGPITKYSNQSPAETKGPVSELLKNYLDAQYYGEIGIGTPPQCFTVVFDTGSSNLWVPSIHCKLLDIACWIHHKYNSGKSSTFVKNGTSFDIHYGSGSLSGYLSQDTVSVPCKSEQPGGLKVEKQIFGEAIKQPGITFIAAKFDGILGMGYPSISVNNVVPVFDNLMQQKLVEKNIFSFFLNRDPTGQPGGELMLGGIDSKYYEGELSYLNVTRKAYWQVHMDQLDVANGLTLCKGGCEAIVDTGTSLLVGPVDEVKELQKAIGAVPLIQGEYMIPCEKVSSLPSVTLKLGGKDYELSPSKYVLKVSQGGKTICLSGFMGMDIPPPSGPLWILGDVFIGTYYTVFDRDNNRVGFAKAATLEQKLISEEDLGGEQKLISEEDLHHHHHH

For “cathepsin D (Chinese hamster ovary host cell protein; recombinant CHO Cathepsin D with mmh tag)”, the “NR-1 band formation, and Y/L cleavage” value was “the results demonstrated a correlation between spiked-in cathepsin D and NR-1 band formation, and Y/L cleavage”.
